Bridge positions count the residues as written; N and C are the ends. * marks the point of attachment. Biotin = O=C1N[C@H]2[C@H](CS[C@H]2CCCCC(=O)*)N1
Key:
Experiment in all cases: cell depletion on chemokine-streptavidin Sepharose column, flow cytometry for CCR1, 3 and 5-expressing cells
[1] = molecular target: T1, hCCR3 (human, UniProt P51677 1-355)
T1 construct: whole, on cells
T1 sequence (looked up): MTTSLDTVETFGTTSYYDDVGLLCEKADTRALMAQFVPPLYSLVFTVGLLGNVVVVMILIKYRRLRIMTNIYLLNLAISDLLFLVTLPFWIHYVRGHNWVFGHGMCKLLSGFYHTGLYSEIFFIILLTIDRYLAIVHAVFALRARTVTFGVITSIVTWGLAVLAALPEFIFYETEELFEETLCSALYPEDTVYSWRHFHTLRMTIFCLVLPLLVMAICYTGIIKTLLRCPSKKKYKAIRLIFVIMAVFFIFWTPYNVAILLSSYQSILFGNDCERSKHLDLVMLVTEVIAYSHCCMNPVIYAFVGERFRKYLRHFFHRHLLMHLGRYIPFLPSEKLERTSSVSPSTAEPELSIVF
Experimental: (§1) To investigate the ability to eliminate CCR1, 3 and 5-expressing cells, in vitro tests have been performed on the biotinylated RANTES coupled matrix. Blood was collected from blood donors and passed through the column device containing biotinylated RANTES coupled matrix. Blood samples were taken before and after column passage and analyzed by flow cytometry (FACS) for the depletion of CCR1, 3 and 5-expressing cells.
(§2) Depletion tests were performed on blood from a healthy donor.

[2] = molecular target: T2, CCR1 (human, UniProt P32246 1-355)
T2 construct: whole, on cells; Endogenous receptor on blood cells in the RANTES depletion test
T2 sequence (looked up): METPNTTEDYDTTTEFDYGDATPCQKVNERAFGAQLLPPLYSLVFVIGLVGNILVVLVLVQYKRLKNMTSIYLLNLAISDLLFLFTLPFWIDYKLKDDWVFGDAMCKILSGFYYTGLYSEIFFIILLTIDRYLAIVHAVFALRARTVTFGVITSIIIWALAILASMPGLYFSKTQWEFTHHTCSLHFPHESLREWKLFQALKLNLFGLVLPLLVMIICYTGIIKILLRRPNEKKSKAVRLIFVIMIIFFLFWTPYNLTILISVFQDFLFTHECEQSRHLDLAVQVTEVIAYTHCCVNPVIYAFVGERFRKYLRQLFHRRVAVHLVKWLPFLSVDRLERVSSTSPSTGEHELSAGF
Experimental: as §1, §2

[3] = molecular target: T3, hCCR5 (human, UniProt P51681 1-352)
T3 construct: whole, on cells
Experimental: as §1, §2

Measured: reduction of chemokine receptor-expressing cells by the column

T3 sequence (P51681 whole entry): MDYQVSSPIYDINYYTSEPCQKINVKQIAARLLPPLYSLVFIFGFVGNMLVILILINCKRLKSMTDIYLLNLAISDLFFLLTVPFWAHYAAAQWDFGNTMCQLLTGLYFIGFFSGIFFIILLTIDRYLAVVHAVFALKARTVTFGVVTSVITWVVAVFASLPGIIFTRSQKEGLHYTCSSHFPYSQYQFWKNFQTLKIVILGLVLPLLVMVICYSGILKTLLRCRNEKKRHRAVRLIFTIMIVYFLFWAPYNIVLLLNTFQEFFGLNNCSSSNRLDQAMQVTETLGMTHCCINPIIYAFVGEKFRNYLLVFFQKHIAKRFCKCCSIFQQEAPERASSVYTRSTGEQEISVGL

B1: biotinRANTES (CCL5): RANTES derivatised at the ε-amino side chain functionality of Lys(67) with Biotin (ligand)
chain: H-SPYSSDTTPCCFAYIARPLPRAHIKEYFYTSGKCSNPAVVFVTRKNRQVCANPEKKWVREYINSLEK(Biotin)S-OH
modifications: disulfide 10-34, 11-50; also: TFA salt
notes: It is treated here as the same molecule; also called biotinylated RANTES
~20%: all assays above
